These results are taken from patent publication US20170065713A1.

The test concerns the target soluble HLA-A*02:01 molecules (purified MHC with human β2-microglobulin) (human). The test is described as follows: competition with radiolabeled standard peptide for soluble HLA-A*02:01.

In turn, NLLTTPKFT (modifications not checked) [gB342-350 peptide (HSV-1 glycoprotein B residues 342-350, …)] showed a Kd above 500 nM. In the case of GIFEDRAPV (modifications not checked) [gB183-191 peptide (HSV-1 glycoprotein B residues 183-191, …)] it was above 500 nM.

The term Kd denotes the free concentration of one partner at which half of the binding sites on the other are occupied at equilibrium, for simple one-to-one binding. A lower Kd goes with a tighter complex.
